Assay results reported in patent US20230287362A1 (REGENTS OF THE UNIVERSITY OF COLORADO A BODY CORPORATE, published 2023).
Ends that are not written are not given here.

B1: E. cloacae CD-NTase C terminus, residues 370-381 (peptide)
peptide: KPAEPQKTGRFA
modifications: also: C terminus conjugated to AMP in ATP-bound structure, unmodified in apo structure
B2: E. cloacae CD-NTase with an N-terminal His6-tag (enzyme)
chain: MELQPQFNEFLANIRPTDTQKEDWKSGARTLRERLKNFEPLKEIVVSTFLQGSIRRSTAIRPLGDKRPDVDIVVVTNLDHTRMSPTDAMDLFIPFLEKYYPGKWETQGRSFGITLSYVELDLVITAIPESGAEKSHLEQLYKSESVLTVNSLEEQTDWRLNKSWTPNTGWLSESNSAQVEDAPASEWKAHPLVLPDREKNEWGRTHPLAQIRWTAEKNRLCNGHYINLVRAVKWWRQQNSEDLPKYPKGYPLEHLIGNALDNGTTSMAQGLVQLMDTFLSRWAAIYNQKSKPWLSDHGVAEHDVMARLTAEDFCSFYEGIASAAEIARNALASEEPQESAQLWRQLFGSKFPLPGPQGGDRNGGFTTPSKPAEPQKTGRFA
modifications: C terminus conjugated to AMP in the cryo-EM structure
notes: also called His6-CD-NTase; ec cdnD02; not shown: N-terminal His6-TEV cleavage site tag of vector 2-BT

Tests used:
[1] = molecular target: T1, E. cloacae Cap2 E1 domain, residues 363-600, C548A (Enterobacter cloacae UCI 50, UniProt P0DX82 363-600); experiment: X-ray crystallography of a fusion construct, 2.11 A
T1 construct: also called Cap2 E1 (of Cap2 E1-CD-NTase: AMP, PDB 7TSQ)

[2] = molecular target: T2, E. cloacae Cap2 E1 domain, residues 374-600, C548A (Enterobacter cloacae UCI 50, UniProt P0DX82 374-600); experiment: X-ray crystallography of a fusion construct, 1.77 A
T2 construct: also called Cap2 E1 (of Cp2 E1-CD-NTase Apo, PDB 7TSX)

[3] = molecular target: T3, E. cloacae Cap2 C109A/C548A (catalytically dead) (Enterobacter cloacae UCI 50, UniProt P0DX82 1-600); experiment: co-purified stoichiometric complex, cryo-EM
T3 construct: also called C.D. Cap2; Cap2(C548A/C109A)

Binder	binding result [1]	binding result [2]	binding result [3]
B1	binds	binds	–
B2	–	–	binds
